Test results reported in US20140017240A1 (University of California, published 2014).

Key:
[1] = biological target: T1, N-cadherin extracellular domains one to three recombinant protein with 6 histidine tag (human) (UniProt P19022); test: phage ELISA, plate coated with ECD1-3-6HIS
T1 sequence (looked up): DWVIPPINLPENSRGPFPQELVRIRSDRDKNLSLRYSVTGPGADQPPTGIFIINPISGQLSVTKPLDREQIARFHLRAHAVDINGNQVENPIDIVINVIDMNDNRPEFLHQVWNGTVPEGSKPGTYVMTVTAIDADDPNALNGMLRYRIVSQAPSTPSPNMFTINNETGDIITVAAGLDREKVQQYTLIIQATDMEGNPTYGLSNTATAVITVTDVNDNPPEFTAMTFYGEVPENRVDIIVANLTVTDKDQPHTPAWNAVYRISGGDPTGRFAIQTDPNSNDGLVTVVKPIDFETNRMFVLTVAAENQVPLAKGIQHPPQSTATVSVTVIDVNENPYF

[2] = biological target: N-cadherin on the cell surface (PC3 cells and LNCaP N-cadherin transfected cells) (human) (UniProt P19022); test: flow cytometry, phage clone on N-cadherin positive cells (cell line not stated)
[3] = biological target: T2, N-cadherin extracellular domains one to three recombinant protein with GST tag (human) (UniProt P19022); test: phage ELISA, second phage batch, plate coated with ECD1-3-GST
T2 sequence (looked up): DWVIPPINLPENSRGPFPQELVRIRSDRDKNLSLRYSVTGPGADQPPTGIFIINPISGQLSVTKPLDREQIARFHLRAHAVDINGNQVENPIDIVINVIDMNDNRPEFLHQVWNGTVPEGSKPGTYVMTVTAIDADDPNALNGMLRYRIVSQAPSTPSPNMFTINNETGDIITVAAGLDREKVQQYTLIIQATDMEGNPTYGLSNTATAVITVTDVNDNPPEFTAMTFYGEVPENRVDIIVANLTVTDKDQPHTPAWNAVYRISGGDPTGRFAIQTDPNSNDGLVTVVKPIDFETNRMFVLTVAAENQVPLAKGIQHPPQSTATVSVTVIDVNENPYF

[4] = biological target: T1, N-cadherin extracellular domains one to three recombinant protein with 6 histidine tag (human); test: phage ELISA, second phage batch, plate coated with ECD1-3-6HIS
[5] = biological target: T2, N-cadherin extracellular domains one to three recombinant protein with GST tag (human); test: phage ELISA, plate coated with ECD1-3-GST
[6] = biological target: T3, N-cadherin on the cell surface (PC3 cells and LNCaP N-cadherin transfected cells) (human, UniProt P19022 160-906); test: flow cytometry, diabody on N-cadherin positive cells
T3 construct: whole, on cells; DU145 and untransfected LNCaP cells served as N-cadherin negative cells; also called cellular N-cadherin; cell surface N-cadherin
T3 sequence (looked up): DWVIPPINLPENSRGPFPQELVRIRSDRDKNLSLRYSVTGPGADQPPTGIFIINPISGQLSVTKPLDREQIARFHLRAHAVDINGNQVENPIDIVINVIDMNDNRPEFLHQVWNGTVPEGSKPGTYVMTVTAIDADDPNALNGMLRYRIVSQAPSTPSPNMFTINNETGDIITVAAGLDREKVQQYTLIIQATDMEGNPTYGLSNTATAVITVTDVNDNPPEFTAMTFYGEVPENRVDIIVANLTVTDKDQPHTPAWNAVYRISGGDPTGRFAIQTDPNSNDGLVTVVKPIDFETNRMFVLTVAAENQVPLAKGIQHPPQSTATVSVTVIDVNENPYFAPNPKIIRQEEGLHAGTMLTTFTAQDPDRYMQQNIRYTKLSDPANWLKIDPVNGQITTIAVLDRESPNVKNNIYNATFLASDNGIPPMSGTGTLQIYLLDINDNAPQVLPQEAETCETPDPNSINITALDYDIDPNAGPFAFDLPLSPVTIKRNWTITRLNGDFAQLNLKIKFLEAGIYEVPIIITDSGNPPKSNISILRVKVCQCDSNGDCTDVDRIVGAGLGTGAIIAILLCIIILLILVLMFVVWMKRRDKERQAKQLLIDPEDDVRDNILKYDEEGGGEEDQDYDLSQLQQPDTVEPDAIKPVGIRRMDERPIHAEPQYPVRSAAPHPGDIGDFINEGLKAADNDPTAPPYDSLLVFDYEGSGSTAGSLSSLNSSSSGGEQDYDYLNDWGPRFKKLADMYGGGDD
Procedure: Flow cytometry was conducted to assess binding of phage antibody clones and diabodies to cellular N-cadherin. For phage antibody staining supernatant concentrated 20 times was used. Individual clones were grown in 20 ml 2TY to a density of 0.5 O.D_{600 nm} when phage were rescued with helper phages. After an overnight culture, monoclonal phage were harvested from the supernatant by precipitation with PEG/NaCl and resuspended in 1 ml PBS/1% BSA. For flow cytometry staining, 5×10⁵ cells were incubated for one hour on ice with 100 μl of 20×PEG concentrated phage antibody clone. Cells were washed in flow buffer (PBS 1% FBS, 1 mM EDTA, 0.02% Sodium azide) and the phage antibody clones detected with monoclonal anti-M13 antibody (Amersham Biosciences). Cells were washed and stained with R-PE congugated anti-mouse antibody. For diabody staining, 5×10⁵ cells were incubated for one hour on ice with the diabody at a 2 μg/ml concentration in flow buffer. Cells were washed and the diabody detected with 1/100 anti-c-Myc-biotin antibody in flow buffer. Cells were finally washed and stained with 1/40 Streptavidin-R-PE (SIGMA) in flow buffer.
The eleven individual phage clones selected by ELISA were tested for cell binding of N-cadherin positive cells (PC3 and LNCaP N-cadherin transfected cells) by flow cytometry. […]

[7] = biological target: T3, N-cadherin on the cell surface (PC3 …); test: flow cytometry, diabody at 2 ug/ml on PC3 cells
[8] = biological target: T4, N-cadherin extracellular domains one to three recombinant protein with 6 histidine tag (human, UniProt P19022 160-497); test: phage ELISA
T4 construct: range 160-497; Expressed in bacteria and purified from the periplasmic fraction on Ni-NTA; also called ECD1-3-6HIS; ECD1-3 6HIS; not shown: 6 histidine tag
T4 sequence (looked up): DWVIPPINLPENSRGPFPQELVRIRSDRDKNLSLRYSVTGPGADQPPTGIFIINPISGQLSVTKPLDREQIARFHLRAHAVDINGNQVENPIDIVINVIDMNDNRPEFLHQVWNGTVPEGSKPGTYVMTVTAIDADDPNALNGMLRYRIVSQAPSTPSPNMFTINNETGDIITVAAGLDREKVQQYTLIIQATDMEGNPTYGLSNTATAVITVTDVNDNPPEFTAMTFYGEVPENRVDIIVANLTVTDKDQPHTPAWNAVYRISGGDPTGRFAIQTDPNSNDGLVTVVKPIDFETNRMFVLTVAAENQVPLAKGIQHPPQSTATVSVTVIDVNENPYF

B1: A8 phage antibody clone (truncated) (scFv)
scFv: MAQVQLQESGWYFDLWGRGTPVTVSSGGGGSGGGGSGGGGSEIVLTQSPSSLSASVGDRVTITCRASQGIRNDLGWYQQKPGKAPKLLIYAASSLQSGVPSRFSGSGSGTDFTLTISSLQPEDFATYYCLQDYNGWTFGQGTKVEIKR
**Q.** For B1, which 1st ELISA (O.D) [1] is on record?
**A.** 0.25 O.D

**Q.** And the Flow Cytometry (MFI) [2]?
**A.** 30 MFI

**Q.** And the 2nd ELISA (O.D) [3]?
**A.** 0.05 O.D

**Q.** And the 2nd ELISA (O.D) [4]?
**A.** 0.11 O.D

**Q.** What about the 1st ELISA (O.D) [5] of the same binder?
**A.** 0.17 O.D

B2: A14 diabody (other)
chain: MAQVQLVQSGGGLAQPGGSLRLSCAASGFTFSRHAMIWVRQAPGKGLEWVSSISGSSDSTSYADSVKGRFTISRDNSKNTLYLQMNTLRAEDTAVYYCAKATGYSYYYGMDVWGPGTTVTVSSGGGGSDIQMTQSPSSLSASLGDRVTITCRASQGISNYLAWYQQKPGKAPKLLIYGATTLQHGVPSRFSGSGSGTDFSLTISSLQPEDFAIYFCQQAHSFPPTFGGGTKLEIKR
notes: Diabody (small bivalent antibody fragment) made from the scFv by shortening the linker from 15 to 5 a.a; also called A14 Db; not shown: c-Myc and 6HIS tags from the pSyn1 vector
**Q.** Does B2 bind [6]?
**A.** binds

B3: E4 diabody (other)
chain: MAQVQLVQSGAEVKKPGESLEISCKGSGYSFANNWIGWVRQMPGKGLEWMGSIYPGDSDVRYSRSFQGHVTISADKSISTAYLQWSSLKASDTAMYYCARHRVAYSGYDAFDIWGQGTMVTVSSGGGGSSVLTQDPAVSVALGQTVRITCQGDSLRSYYPSWYQQKPGQAPVLVIYGKNNRPSGIPDRFSGSSSGNTASLTITGAQAEDEADYYCHSRDRSGNQVLFGGGTKVTVLG
notes: Diabody made from the scFv by shortening the linker; also called E4 Db; not shown: c-Myc and 6HIS tags from the pSyn1 vector
**Q.** Does B3 bind [6]?
**A.** binds

B4: D4 diabody (other)
chain: MAQVQLVQSGAEVKRPGASVRISCKASGYPFTTYPIHWVRQAPGQGLEWMGGINPNSGATKNVQKFQGRVTMTADTSIRTAYMELSRLTSDDTAVYYCARGEGDTGSYLGGYWGLGTLVTVSSGGGGSSELTQDPAVSVALGQTVRITCQGDSLRSYYASWYQQKPGRAPLLVIYGKNIRPSGIPDRFSGSSSGNSASLTITGAQAEDEADYYCNSRDRSGNYLFGVGTKVTVLG
notes: Diabody made from the scFv by shortening the linker; also called D4 Db; not shown: c-Myc and 6HIS tags from the pSyn1 vector
**Q.** Does B4 bind [7]?
**A.** binds

B5: D4 phage antibody clone (scFv)
scFv: MAQVQLVQSGAEVKRPGASVRISCKASGYPFTTYPIHWVRQAPGQGLEWMGGINPNSGATKNVQKFQGRVTMTADTSIRTAYMELSRLTSDDTAVYYCARGEGDTGSYLGGYWGLGTLVTVSSGGGGSGGGGSGGGGSSELTQDPAVSVALGQTVRITCQGDSLRSYYASWYQQKPGRAPLLVIYGKNIRPSGIPDRFSGSSSGNSASLTITGAQAEDEADYYCNSRDRSGNYLFGVGTKVTVLG
**Q.** B5 was tested. Which Flow Cytometry (MFI) [2] did it give?
**A.** 0 MFI

B6: A14 ScFv phage antibody clone (scFv)
scFv: MAQVQLVQSGGGLAQPGGSLRLSCAASGFTFSRHAMIWVRQAPGKGLEWVSSISGSSDSTSYADSVKGRFTISRDNSKNTLYLQMNTLRAEDTAVYYCAKATGYSYYYGMDVWGPGTTVTVSSGGGGSGGGGSGGGGSDIQMTQSPSSLSASLGDRVTITCRASQGISNYLAWYQQKPGKAPKLLIYGATTLQHGVPSRFSGSGSGTDFSLTISSLQPEDFAIYFCQQAHSFPPTFGGGTKLEIKR
notes: Clone A1 was renamed A14; Selected on ECD4-6HIS; also called A14 (A1)
**Q.** Does B6 bind [8]?
**A.** no binding
